In the DeepSol protein solubility set:

Test: soluble on expression in E. coli; label from the status in PepcDB or PDB records

| Sequence | soluble on expression in E. coli |
| --- | --- |
| MGSDKIHHHHHHMLEHKIDFMVTLEVKEANANGDPLNGNMPRTDAKGYGVMSDVSIKRKIRNRLQDMGKSIFVQANERIEDDFRSLEKRFSQHFTAKTPDKEIEEKANALWFDVRAFGQVFTYLKKSIGVRGPVSISMAKSLEPIVISSLQITRSTNGMEAKNNSGRSSDTMGTKHFVDYGVYVLKGSINAYFAEKTGFSQEDAEAIKEVLVSLFENDASSARPEGSMRVCEVFWFTHSSKLGNVSSARVFDLLEYHQSIEEKSTYDAYQIHLNQEKLAKYEAKGLTLEILEGL | not soluble |
| GHNLSYSVSANLSNYDARITRYDNPEKVFAKSYYPGMKLGEIWGYHVDGLFASDEEAAQYSSQVDLGVVAKNLPQGTWRAGDLKFADLDGDGKISVGEDSALNPGDMKIIGNELPTLQYGFSGSLNYMGFDIYAFFQGTGNHYWYPNGYNYQFWGSFSDPVAGYIPRNFIDQCWSKDNPGAYFPRPLGQSAKNGQLSFVNDRYLQNIRYMRFKNLTIGYSIPGKILSKVSIQQLRVYFTAENLCYWSPIKKHSKYIDPEAAFSRSSNQLNAMYYPWAKTYMFGIDITL | not soluble |
| MSLKIYESYEDLPKLKLPYGNEVFISDSTIRDGSQMPGIVLSREHKIQIYEYLHEIGIEKLEAFVFNKRDRDAVDLMFDKGYEFPEITGWARSSRADIDKILEVDGIEETGILMSVSDTHIHSKMRLSGREEAEERYLDALQYAVDHGLKTRAHLEDMTRADNYGFVFPLVKKIMEIDPDCIIRVCDTVGYGMPFMNIDEPYGIPKIIQHLKKEIGVKNIETHIHDDYGFGSASSIAGFWHGANWTSVTFLGIGERAGNSEMEKILLFLADRVEGFDKYNLEPVTRFAEFMEKELGLRVPRNKAVVGKNIFAHESGIHAAGVLKNPFNYEPYPPELVGGTRLLLIGDSSGLEVIRYKVQETLNNLLDVETVVEKDDRRLLKIQKEIQKLYDKEERVSCISDEELLAYVEKYFLYQPISDPARTGRGKLKNRGKIQEPVEEKEGHHHHHH | not soluble |
| MVLDRQHLGVTKSRCIVWGVAFLSDGTVISVDSVGKVQLWDSATGTLVKSHLVANADVQSIAVADQEDSFVVGTAEGTVFHFQLVSMTSNSSEKQWVRTKPFQHHTHDVRAVAHSPTALISGGTDTHLVIRPLMERVEVKNYDAALRKITFPHRRLISCSKRRQLLLFQFAHHLELWRLGSTSATGKNGDTLPLSKNADHLLHLKTKGPENIICSCVSPCGSWIAYSTASRFFLYRLKYERDNISLQRVSKLPSFLRSALHILFSEDSTKLLVASNQGSLHIVHLSEGSFKHLHTFQPQSGTVEAMCLLAVSPDGNWLAASGTSAGVHVYDLHHLKLHCTVPAYNFPVTALAIAPNTNNLVIAHSDQQVFEFSIPEKQYTEWSRSLQKQGFHQLWLQRDTPITHISFHPKRPMHILLHDAYMFCIIDKSLPLPNEKTVLYNPLPPKNESDVFLRRTTHGFKMSKIYKPLLFMDLLDERTLVAVERPLDDIIAQLPPPIKKKKFGT | not soluble |
| MLIDTDFFLSNRSDSLVLDVRSPEEYRRGHIPGAESFPLFSDAERAEVGTLYVRHSRQAAVERGLEFVGPRMAEMVREARSLAAGRDIILYCWRGGMRSESVAWLLSVAGLRIRRLRGGYKAYRRHFPDILKLYPWRFIVLGGYTGSGKTPILNELTQMGEQVIDLEGLAHHKGSAFGALGQEQQPTTEHFMNLLHDALSACDPNRPIWVESESKTIGRVFLPDDFYKVMRQAPLIELSVPRPVRIAHIAKEYGVYDAEALANSFEHIARRMGGAATTQAITALKEGRLEEAVSLALDYYDKAYAHSLAEFRESSSARLAVETDTPHETAIKLLELSHIKGLQS | not soluble |
| MGSDKIHHHHHHMTHDDVIQAIVNTIRDVPGIRALFLSGSYGNGLADEYSDIDFVLVSEDGATDAVAEAWRNAVEKTGEIVLWWDRTTVPVLINAITEDWTRTDVIILKPDQMGRQTKDALKPLFDHDNIYDTLKDAAPKPGPDLKRFRYEVEEFIRILGLLQLAVGREEYINGVLGVSLLRSKLVNLLIEETDAPNRGGILHLNRLITEDQKQVLISLPPAVPERDAMISAHLAYAAAYLPRARRRAERLGMEWPERFEAVTWSRLEKTLSIRRPYD | not soluble |
| MAPLVAVVSSPRARLFACFLRLGTQQAGPLQLHTGACCTAKNHYEVLVLGGGAGGITMATRMKRRVGAENVAIVEPSERHFYQPIWTLVGAGAKELSLSVRSTLSVIPSGVQWIQDRVAELNPDENCIRTDSGKEISYRYLIIALGIQLDYEKIKGLPEGFAYPKIGSNYSVKTVEKTWKALQDFKEGNALFTFPNTPVKCAGAPQKIMYLSEAYFRKTGKRPKANIIFNTALGTIFGVKKYADALQEIIRERDVSVNYKHNLIEVRPDKQEAVFEILDKPGETHVIPYEMLHVTPPMSAPDVLKRSPVADSAGWVDVDKETLQHKKYPNVFGIGDCTNLPTSKTAAAVAAQSGILDRTMCLIMKNQRPIKKYDGYTSCPLVTGYNRVILAEFDYTAQPLETFPFDQSKERITMYLMKADMMPFLYWNMMLRGYWGGPAFLRKLFHLGMN | not soluble |
| MGSDKIHHHHHHMKEPLSLSFDEQMALFEERGMQMTSKDVEKLKVIGYYRIKQFAAPLANKKIVNENTVYDYKGIYFSDVLKRYYQDKNLRIHLLHAIEKIEVALKTWVAFILGEQYGAFGYLNFSEWCDKNRYSKFEIEKRQFFFKKDLLRATSRSCTEDIKLKKNKEKDNFPSIWLAVEVLTFGELVRLVEIMSTRNKRKLSKMFRCTDIELLSWLKCINFVRNACAHNANVIDLQLETKPVCRSDWKDYLYNVNKSNNGTPSNKLAIVIFIIKTLVTPINERYGWKNIRRNIARLVDSSDKNAHLLGFSDCASAYKVLEKSNGTTTKASLP | not soluble |
| MGSDKIHHHHHHMVKVLILGQGYVASTFVAGLEKLRKGEIEPYGVPLARELPIGFEDIKIVGSYDVDRAKIGKKLSEVVKQYWNDVDSLTSDPEIRKGVHLGSVRNLPIEAEGLEDSMTLKEAVDTLVKEWTELDPDVIVNTCTTEAFVPFGNKEDLLKAIENNDKERLTATQVYAYAAALYANKRGGAAFVNVIPTFIANDPAFVELAKENNLVVFGDDGATGATPFTADVLSHLAQRNRYVKDVAQFNIGGNMDFLALTDDGKNKSKEFTKSSIVKDILGYDAPHYIKPTGYLEPLGDKKFIAIHIEYVSFNGATDELMINGRINDSPALGGLLVDLVRLGKIALDRKEFGTVYPVNAFYMKNPGPAEEKNIPRIIAYEKMRIWAGLKPKWL | soluble |
| MSESLRNTITKIVVEKIRCKSLMFMPSHVCATFPFNTQNALVVDIGHSECIAVPIIEGVTMLNEFESARSICGRQLERRVREQMEKYGQIAELNGERRAITENDWQDIDACKLIETLSLSLICLDKERAENWTKWEASEEGEKPDIETLCKERLFPNNGKIFVVPPVVFETSTEIFFNENLNPTSFDLSLPKLLHKLVSKCPIDLRKKLFPNILLTGGVSTIPGLMKRLEQEIQVIDEKNNSKIAVIVKFYQFSEIKNTPLFVSWLGASLLGSLRETIERKSLTLEEWKNGKLAADWTDIIVKSR | not soluble |
| HNPLYTAHELESPFQDHGARVAIVWDKAADTLEKLRRNTPLETIVSVNMMTAMPAVQQALLRLPIPMIRKKRDALTASAPNTIPWEILVGSALGGNGDDIVPCPEVTKKSIALILYTSGTTGTPKGAQLSHGNLFANIMQGKAWVKGIGDQDER | not soluble |
| EGLNICKKIMVISDKNDAISEFIIKELERGCTIIDGKGGYTGKDTYILYTVLNRKEFIRLRIFIKETDPNAFITISDAKEVLGEGFKEI | not soluble |
| MHLKNNQTLANGATVTIYPTTTEPTNYVVYLHGGGMIYGTKSDLPEELKELFTSNGYTVLALDYLLAPNTKIDHILRTLTETFQLLNEEIIQNQSFGLCGRSAGGYLMLQLTKQLQTLNLTPQFLVNFYGYTDLEFIKEPRKLLKQAISAKEIAAIDQTKPVWDDPFLSRYLLYHYSIQQALLPHFYGLPENGDWSAYALSDETLKTFPPCFSTASSSDEEVPFRYSKKIGRTIPESTFKAVYYLEHDFLKQTKDPSVITLFEQLDSWLKER | soluble |
